# Measured values published in publication PMC7705670, “Structural and functional characterization of M. tuberculosis sedoheptulose- 7-phosphate isomerase, a critical enzyme involved in lipopolysaccharide biosynthetic pathway” (Scientific Reports, 2020).
# Where a chain is given by its changes, count along the chain named. Numbers in names are those of the source.
# B1: MtbGmhA N53G mutant (enzyme)
# chain: MCTARTAEEIFVETIAVKTRILNDRVLLEAARAIGDRLIAGYRAGARVFMCGGGGSAADAQHFAAELTGHLIFDRPPLGAEALHANSSHLTAVANDYDYDTVFARALEGSARPGDTLFAISTSGNSMSVLRAAKTARELGVTVVAMTGESGGQLAEFADFLINVPSRDTGRIQESHIVFIHAISEHVEHALFAPRQ
# notes: not shown: His6, N-terminal, kept
# B2: MtbGmhA S121G mutant (enzyme)
# chain: B1 chain with G53N, S121G
# notes: as for B1
# Experiments:
# Assay in all cases: SEC
# [1] = target: MtbGmhA Q173A mutant (M. tuberculosis) (UniProt P9WGG1)
# [2] = target: MtbGmhA S123A mutant (M. tuberculosis) (UniProt P9WGG1)
# [3] = target: MtbGmhA S126A mutant (M. tuberculosis) (UniProt P9WGG1)
# [4] = target: MtbGmhA T122A mutant (M. tuberculosis) (UniProt P9WGG1)
# [5] = target: the molecule itself
molecule,measurement,setting,value
MtbGmhA Q173A mutant (from UniProt P9WGG1 1-196) (enzyme),stoichiometry N,[1],4
MtbGmhA S123A mutant (from UniProt P9WGG1 1-196) (enzyme),stoichiometry N,[2],4
MtbGmhA S126A mutant (from UniProt P9WGG1 1-196) (enzyme),stoichiometry N,[3],4
MtbGmhA T122A mutant (from UniProt P9WGG1 1-196) (enzyme),stoichiometry N,[4],4
B1,stoichiometry N,[5],4
B2,stoichiometry N,[5],4
